The record followed here is a protein production outcome set (Wang et al. 2014).

The data set in a line: label from the status in PepcDB records.
On to “MTKGSLSGLPRENIELPDGSVLRRRSLVSDDAFIDAVTADVGHLGEWLRWARHPPTREETERFRAEQDADWDAGRSFVYVLTPPDRHDQVLGGGAMFPNGEVGVLEIGYWVCSPATGRGLATRAAAALTEEGLGLPGVKAMEIHCDRANARSAAIPPRIGYRLLRIEADEPQTVAEAGRSMVWRHDGA”, for which the protein production entry is on record as “failed”. To “MTKIAILGANGRLGRVVAKAFIDAGFDVRTVTRTGKVPAELDGATAVAGDALDRQSLISATEGVDIIFNGLNPIYTDWGKCLPMAENVMAACHANNALHLFPGTVYNYGSPMPAVITEDTPFHPTTEKGRIRCAMEELFRREADAGRVRTILLRAGDFFGGTGSGSWFDLVVAAKMSKGVYTAPGPVDLVHEWAYLPDFAVGFVALARNLDRLGSYEALNFPGHAVTDLEIKAAAEKALGRPLKMTSMPWWVLRAGSPFVAMWREIVSMSYLRFEPHQLASTRLEGIIGEIPHTPLDQAVAQALEDIGIATVKGMKAA” belongs “failed”; to “MTKISKAACIGGGVIGGGWIARFLLAGIDVDVFDPHPEAGRIVGEIIANAEKAYAMLTGAPLPPRGKLTFCETLAEAVADADWIQESVPERLDLKRGVLTEIDAAARPEALIGSSTSGLLPTDLQRNMTHPERLFVAHPYNPVYLLPLVEIVGGEKTSAGTIRAAIERLAPIGMKGVHIAKEIEAFVGDRLLEALWREALWLIHDDICTVETLDDVIRYSFGLRWAQMGLFQTYRIAGGEAGMRHFLAQFGPCLAWPWTKLTDVVDLDDALIEKIGRQSDEQAAGLSIRALERIRDENLVGILQALKGGDNGKGWGAGKLLKDFEQTLWARGGDAAASADPSKPLRLVETKVSPAWVDYNGHMTEHRYLQVFGDTSDALLRLIGVDLAYVEAGHSYYTVESHIRHLGEAKLGQAIHSACQILTADEKRLHVFHTLRDTATGAVIATAEQMLLHVDSKEGKAVAAPAAVLDRVKAIAAAHAELALPEGAGRHVGQRR”, “failed”.

For “MTKITLSPQNFRIQKQETTLLKEKSTEKNSLAKSILAVKNHFIELRSKLSERFISHKNTESSATHFHRGSASEGRAVLTNKVVKDFMLQTLNDIDIRGSASKDPAYASQTREAILSAVYSKNKDQCCNLLISKGINIAPFLQEIGEAAKNVGLPGTTKNDVFTPSGAGANPFITPLISSANSKYPRMFINQHQQASFKIYAEKIIMTEVAPLFNECAMPTPQQFQLILENIANKYIQYTP”, the protein production result is “failed”. Regarding “MTKKAILLSFLGGFLSLSLEVIWIRLLGFQTFSLPQAFSFTLALFLLGIAFSSFIGKKVCQQGDASINYIGRIFFIAALFDCLAIGLISTTSNSFTNLVYSIFSIFCCALLRGIVFPIVHHLGSEHKKTGAAISNVYFANVLGCTIAPIFIGFYLLDQFTTQQTYLIVISITLIIACFCLTKRVFKAINALFAISVVFATALLPEKMISTLANEEDMQLETLIENKHGIIQVYLDKNQDHLVYGSNVYDGQLNVNLNHNSNGIHRAYLLPAHRK”, the protein production result was “failed”. To “MTKLPATSDIYISFFMFTTNLQPDNLDYRRIVVAHIKKLQRFGYSGFEFPIAPGLPENYAQDLENYTNLRHYLDSEGLENVKISTNVGATRTFDPSSNYPEQRQEALEYLKSRVDITAALGGEIMMGPIVIPYGVFPTTDFNEPIWSDELQEHLKVRYANAQPILDKLGEYAEIKKVKLAIEPITHWETPGPNKLSQLIEFLKGVKSKQVGVVIDSAHEILDGEGPEIFKTQVEYLAQQGRLHYVQVSPPDRGALHTSWLPWKSFLTPIVKVYDGPIAVEIFNAIPAFTNSLRLTRRKFWIPDEDPPNQYPNAYDIADEAIKVTRKELKKIGSK” belongs “not failed”.

As to “MTKMLKLFDAHFHIIDYRFPLITNQSYLPPEFTVEDYLQRAKPLNICGGAVVSGSFQAFDQSYLLAALSILGSDFVGVTQLPATVSDEEIIQLNQKGIRAVRFNVKRGGSENIHRLKYFAHRIYEMVRWHVEIYVDSKDLGDLTSLLLELPAVSIDHLGLSHSGFSQLLHLVEHGIKIKASGFGRVDFDVKKALQTIAQINPDALLFGTDLPSTRAPRPFLDSDIQIIQDLFDEKLTEKILYRNARNFYSKNSSELEHHHHHH”, the protein production result is listed as “not failed”. The result for “MTKNKKGKNKEVINNYEEEEDYNIIDHDENAEVDVIPEPDFNSNMVYLNIYDLDSVSKVVNTVARSVGAGAFHAGVEVYGYEYSFGYIMDGETGVTKTNARVMIQKNNEILKNIKTYRIHVNIYIYIFLLVFSKTPLTKEEVDLLVEVMKLQWIGDTYDILSRNCLNYADYFCNLLDVGGIPEWVMSLQKKVTWVKSNINIAASKLKELNKAAGIPNVINYLKKKYEDSNSSDDYKGCKVVVK” reads “failed”; that for “MTKPQGAVAEKATPAVPKPQKVRVIVEFNKESILDYATEQKKTVAQLNQADVEKKLQSIKQEQDKVLKNIEKSVHFDSSKVKRYDAIINGVALDIQAQEIEKLKTIADVRRVYVSQEYVQTKPLLSSSGQLIGLPEVWNNSQYKGEGTVVAVIDSGVDFKHQALKIKEPNRAKYNKTSIEKLIHEKNLKGKFYSEKVPYGYNYYDYNDNLKDSYGVMHGMHVTGIVGANDDNQKLYGVAPNAQILAMKVFSDDQQNPTTFTDVWLKALDDAILLKADVVNMSLGTPAGFVHEGKDYPELEVIARACKAGIVIAVAAGNEGNITDGNTYGVKPLAENYDTALIANPALDDNTLAVASMENLKKHAHVLKFKDKKSGTEVTEVINLHVAPNASKTIIGLAVDLGAGAPSELSKHFDLSGKIAMLEIPEDNKSNGFLEKVQAITKLNPAAILLYNNAKVKDDLGSQLLVESEAAKFNIARITRSTYNNIKNNSNKIITILTERQAIDNSLAGQLSSYSSWGPTPDLRLKPEITAPGGHIFSTVEDNQYADKSGTSMAAPQVAGAAAVLKQYITDKKIPVDNAADFIKLLLMNTAQPIINKQSKDGKTPYFVRQQGSGAMNLAKALVTTVVATVTGTNDNNADGKLELRELKEKKFKARILLRNFGKTNKTYIISSEAIADPVDEKGFRTQNSEHLVSKKADAVTRKVTVEAGKTLAVDLDVDYSDAEALTRNNFLEGYLNLKDTEGVADLHLPFLGFYGSWTEQKAIDAFEGISEIGNGDKKRRVQFYVNKETNKTSSTFTTNGMLSLPIYNNTVFFSPNSPFYDKAGVRIAALRNMEYVQYSIIDPDTNKEVRVLGRSHDVRKLYRLDYRNSFAMMPDSIWDGKIKD”, “failed”; that for “MTKQKKLLPVASLLLGAAIWGVAWYPYRLLEQAGMRGELSTTLAYSIALLIGLILFRRQLRISEILNPAAGILFWISLSAGWTGIAYVLGIIHGEVMRVLLLFYLAPLWTILFSRILLQERLSRQGYAIILLSLAGALLLLWQPGSKLPLLASYGDWMGLSGGLAFALTNVLIRKDQQHGIQLKLLAVLSGTALTGFAATLLMESISDITHLHTHAWLILAGIGGLVFFLCILLQYGMTHIPANQAIVIMLFELVVAAIAAHFLTNEYLTGRDWAGGLMIASASLFSARVNRD”, “failed”. For “MTKSKIIEIGPLVPAFEEEKIVILFGPTATNELREISVIHEFEAAPQSALSKGNTLQIGDQVYIIEEVGTEANKNLEELGHISIYFRSGQNEVLPGAIVVSPEVFPTLAIGDTIQF”, the protein production result is reported as “failed”.

As for “MTKSQIMDLSNFYQDTDYPSGRLIALLILSLGLTPAEIANLKKADFDTTFNILSIEKSQMKRILKLPEDLLPFLLESLEEDGDLVFEHNGKPYSRQWFFNQLTDFLNEKNEQQLTAQLLREQFILKQKENGKTMTELSRLLGLKTPITLERYYRLEHHHHHH”, the protein production result is reported as “not failed”. The result for “MTKSTPHPSSIIKAEQQSLLYLHIAVFLFGGTALFSKLIGLPALDITVYRTGIAALALFILLTLQKKQISLSSMKDYGIAILLGCVVGLHWVTYFTGMQMAGVTVGMIAFFTYPVITVFIEPFFNRTVPKMKDMITAFVVIIGIVLLIPEISFGNQITLGIVTGIISAVFFALRNILHKNYFSHYSGPHTMLYQTLVACLMLCLFVEVPPMQVTESDWLLLLLVGVVFTATPHALFASSLRSLSATTAGLISCLQPLYGSILAIILLHERPDILTIIGGLLVVSAAIFETWSVSRGRR” reads “failed”; that for “MTKTWEQLSAIQPIGVKMLMNSIAKERISHAYLLEGEKGTGKFATAIQMAKSFLCSQRNRVEPCHVCTNCKRIDSGNHPNLHIVKPDGLSIKKQQIHDLQEEFSKTGLEANKKVYIIEHADRMTANAANALLKFLEEPSSDTTAILLTEQSHQILNTILSRCQVVTFRPLPTESLIRRLQDEGITVSLSTLAAQLTNSFDEALTLCNDEWFAQARALVIKLCEALEKDKASIFFVQEKWGKHFGEKEQLQQGLDMLLLIYKDLLYVQLGEEDRLVFREQKEMFESFSYAQKRIVSALFNILEAKNRINANVNAQLVFEQLVLRLQEG”, “failed”.

Turning to “MTKYALVGDVGGTNARLALCDIASGEISQAKTYSGLDYPSLEAVIRVYLEEHKVEVKDGCIAIACPITGDWVAMTNHTWAFSIAEMKKNLGFSHLEIINDFTAVSMAIPMLKKEHLIQFGGAEPVEGKPIAVYGAGTGLGVAHLVHVDKRWVSLPGEGGHVDFAPNSEEEAIILEILRAEIGHVSAERVLSGPGLVNLYRAIVKADNRLPENLKPKDITERALADSCTDCRRALSLFCVIMGRFGGNLALNLGTFGGVFIAGGIVPRFLEFFKASGFRAAFEDKGRFKEYVHDIPVYLIVHDNPGLLGSGAHLRQTLGHIL”, the protein production result is recorded as “not failed”. The result for “MTLDAAPHLHPAVLSPRPQPGRHRRDLHQSSRAFVLLTCIVATLALMLSLPAGLQAAEATVIVPFGGGILRDDAQTVAAAAARIEALRLSTASLGRDSAALFSAETPARLLSLTAATFEAHTTATSVVGYPPEVEVAVNIRTTPRGGDAATALRAALRAPEKLELREGILLHTRENLLEARQLALDAARHRQKAGTESESPYDRRFAALARTLRSLDTLERALSYLDGVWRHPIILAADMRQVVEASPEMPLGWTFLGEALLQLDRPQDAVEALDRALALPDAPVRARLARGIANLRLDLTALAVDDLSRVLREAPRLAPAWRARGAARMMRREYGPMCEDFIQACNLGDCEGLASARDAGHCLAPARPQTVKADD” reads “failed”. The result for “MTLFDGTPFEWAPGRIEVRARRECGASRKSLVVAAGVSYLARMIFSFDAFVTNALFDRSGRAMFALGDGTVRLQTDEGFVTVEAHGGPLGGAVLAAAVHPSGAGIVTGGDDGRVVWSRIEGGEVVATLIAEVKNKWIEHVAASAASGLIAFTVGKEVHVRDAADPAFARTFPHEKTVSGLAFEPKGRRLASATYGGAYLWYARIADQKPTVLKWAGSHIAVEFSPDGKFLISSMQENQLHGWRLSDGKDMRMGGYPSKIKSVAFFDKGNLLATAGASGAVIWPFAGANGPMGKEAAEIGFSRDSMVVRVAGIDPQPVCIAGQDSGKIWAAHMRNGRIETLKAEKGAPISALSVSADGKRLAWGDESGEAGVLEIPDLSGPRQFVG” reads “failed”; that for “MTLGLKDLYYAVCTEADGAESYGTPKKMAEAMSADLSVKTADGSLYADDTLSESVTEFASGTLKLGIKDLTPEVLAELLGQAVDKNSVVWAGKEDEPPYVAVGFRAKKTGGKYRYVWLLKAKFKVPSEKYETKGESIKFNTPDIEASFTTRKKDNLWKADFVGTEESAAAKTWFTAVPEKAAAMESVLEHHHHHH”, “not failed”; that for “MTLHEHTDEETAEHNLPSKSSGSTRRLALVAVVNFFGFVIELAGGLLFGSVALISDALHMLFDMLAYAMAFGASYTAERFEGGEAWSYGLHRLEPVAAFLNGVLLLPMVGYIVWESYQRFLEPVAINPELTLIIATGGLLVNIGSVYVLQGGEMSLNERGAFYHLLGDAGGSVAVIVSTAAVAVFDLPIADPVAAVLIGLLVLASAGNVLRESTSILLERSPVSSEELRDELTTLDGVDQIEDLHVWQVCSQLTVATVRLTDTSTTLEEQRRIQSRVHDYLTNRGIDHATVELVGRTDPDTDPVGTTNHSH”, “failed”.
